The numbers were not newly measured in paper PMC12805100, which cites them from elsewhere.

Read-outs that look alike come from different tables or passages of the source.

A word on the Kd: it is the concentration at which binding is half-saturated.

Data set [1] concerns the target Calmodulin (Homo sapiens) (UniProt P0DP23).
Data set [2] has the same target. This is another data set of the same source.

For the substance TRPA1 DCTCaMBE (from UniProt O75762), the dissociation constant (Kd) is 100 nM in data set [1] and 600 nM in data set [2].
